± gives the uncertainty stated by the source.
Test: self-splicing fitness, log relative to wild type (ln ratio); higher = more splicing; Tetrahymena group I intron in knt gene, E. coli kanamycin selection, DiMSum; sequences stand for … in CUCUCU…GGAGGGAAAAGUUAUCAGGCAUGCACCUGGUAGCUAGUCUUUAAACCAAUAGAUUGCAUCGGUUUAAAAGGCAAGACCGUCAAAUUGCGGGAAAGGGGUCAACAGCCGUUCAGUACCAAGUCUCAGGGGAAACUUUGAGAUGGCCUUGCAAAGGGUAUGGUAAUAAGCUGACGGACAUGGUCCUAACCACGCAGCCAAGUCCUAAGUCAACAGAUCUUCUGUUGAUAUGGAUGCAGUUCACAGACUAAAUGUCGGUCGGGGAAGAUGUAUUCUUCUCAUAAGAUAUAGUCGGACCUCUCCUUAAUGGGAGCUAGCGGAUGAAGUGAUGCAACACUGGAGCCGCUGGGAACUAAUUUGUAUGCGAAAGUAUAUUGAUUAGUUUUGGAGUACUCGUGGUCG
Outline: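 Fitness was computed with DiMSum as the error-weighted combination of replicate fold changes, kanamycin versus none, each normalised to wild type. The library randomised all eight intron nucleotides of the P1ex region, with the intron placed in the knt kanamycin-resistance gene on pET-22b(+) in E. coli BL21(DE3). Six replicate transformations were grown overnight at 37°C or 30°C on LB agar with or without 25 μg/mL kanamycin, plus 100 μg/mL carbenicillin, 50 μM IPTG and 0.2% rhamnose. Pooled colonies were amplicon-sequenced on an Illumina HiSeq 2500.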

| Sequence | self-splicing fitness (ln) (30 °C) | self-splicing fitness (ln) (37 °C) |
| --- | --- | --- |
| CAACAGCAAUAUUACGAUCG | -0.183 ± 0.052 | 0.463 ± 0.069 |
| GCCUAGCAAUAUUACGCAGG | -4.18 ± 0.28 | -2.44 ± 0.25 |
| UGAGAGCAAUAUUACGAUUA | -0.816 ± 0.19 | -0.653 ± 0.3 |
| UGAUAGCAAUAUUACGAGCG | -0.553 ± 0.11 | 0.433 ± 0.15 |
| AGUUAGCAAUAUUACGGGCG | -0.303 ± 0.16 | -0.0474 ± 0.17 |
| GGCCAGCAAUAUUACGGCGA | 0.0969 ± 0.095 | 0.581 ± 0.11 |
| ACUCAGCAAUAUUACGGUAA | -1.66 ± 0.092 | -0.871 ± 0.081 |
| UUUCAGCAAUAUUACGCGGG | -2.27 ± 0.12 | -2.35 ± 0.15 |
| GGUUAGCAAUAUUACGUACA | -0.759 ± 0.11 | -0.469 ± 0.11 |
| UCACAGCAAUAUUACGCAGU | -4.13 ± 0.21 | -2.17 ± 0.16 |
| UCACAGCAAUAUUACGUUUG | -2.21 ± 0.08 | -1.2 ± 0.11 |
| UGACAGCAAUAUUACGCCAG | -1.56 ± 0.12 | -0.793 ± 0.14 |
| UACGAGCAAUAUUACGGAGG | -2.06 ± 0.5 | – |
| GUUGAGCAAUAUUACGAUGA | – | -2.27 ± 0.42 |
| CCUAAGCAAUAUUACGCACU | -2.71 ± 0.23 | -2.96 ± 0.23 |
| GGUAAGCAAUAUUACGUAAA | -0.961 ± 0.083 | -1.13 ± 0.13 |
| GUCGAGCAAUAUUACGCUCA | -0.929 ± 0.21 | -0.388 ± 0.22 |
| AGACAGCAAUAUUACGGCCG | -1.26 ± 0.078 | -0.403 ± 0.12 |
| CAAAAGCAAUAUUACGGACG | -0.163 ± 0.059 | 0.223 ± 0.079 |
| GACCAGCAAUAUUACGCCUC | -1.17 ± 0.097 | -0.623 ± 0.11 |
| UCAGAGCAAUAUUACGUUUA | -3.02 ± 0.25 | -2.6 ± 0.23 |
| CGGUAGCAAUAUUACGAUCA | -0.493 ± 0.085 | 0.196 ± 0.12 |
| ACAAAGCAAUAUUACGGUGA | -1.28 ± 0.069 | -0.535 ± 0.07 |
| UACGAGCAAUAUUACGGGCC | – | -3.34 ± 0.28 |
| CGCCAGCAAUAUUACGUUUC | -3.41 ± 0.12 | -2.42 ± 0.24 |

| Sequence | self-splicing fitness (ln) (30 °C) | self-splicing fitness (ln) (37 °C) |
| --- | --- | --- |
| AACAAGCAAUAUUACGGGUG | -0.579 ± 0.047 | -0.604 ± 0.064 |
| UCUAAGCAAUAUUACGUGUC | -4.21 ± 0.36 | – |
| CUUGAGCAAUAUUACGUCUG | -0.671 ± 0.086 | -0.657 ± 0.11 |
| ACUAAGCAAUAUUACGACUA | -1.52 ± 0.14 | -0.721 ± 0.14 |
| AUAGAGCAAUAUUACGGUGU | -1.24 ± 0.1 | -0.567 ± 0.15 |
| GUAUAGCAAUAUUACGGGCC | – | -1.55 ± 0.27 |
| CGCUAGCAAUAUUACGACUC | -1.4 ± 0.1 | -1.61 ± 0.15 |
| CGAGAGCAAUAUUACGAGUC | -3.99 ± 0.4 | -3.75 ± 0.34 |
| CUAAAGCAAUAUUACGGUUG | -0.57 ± 0.056 | -0.138 ± 0.081 |
| CCACAGCAAUAUUACGUGGU | -4.13 ± 0.14 | -3.65 ± 0.17 |
| CUUCAGCAAUAUUACGGUCG | -0.131 ± 0.062 | -0.155 ± 0.093 |
| CCGUAGCAAUAUUACGUACA | -2.04 ± 0.14 | -1.8 ± 0.19 |
| AAGUAGCAAUAUUACGUUGA | -3.64 ± 0.32 | -2.29 ± 0.22 |
| GACCAGCAAUAUUACGCGCA | -0.663 ± 0.065 | 0.131 ± 0.093 |
| GCCUAGCAAUAUUACGGUAG | -3.79 ± 0.18 | -2.99 ± 0.27 |
| GCAAAGCAAUAUUACGGUUG | -2.86 ± 0.13 | -2.04 ± 0.16 |
| ACCAAGCAAUAUUACGCACA | -0.684 ± 0.075 | 0.0111 ± 0.087 |
| UAACAGCAAUAUUACGCGCU | -1.93 ± 0.096 | -0.612 ± 0.11 |
| UACCAGCAAUAUUACGGUUC | -3.88 ± 0.18 | -1.38 ± 0.14 |
| CACUAGCAAUAUUACGGCAC | -2.4 ± 0.11 | -1.53 ± 0.18 |
| CUCGAGCAAUAUUACGCGUG | -3.43 ± 0.26 | -2.03 ± 0.19 |
| CGGGAGCAAUAUUACGGAGU | -3.92 ± 0.27 | -2.77 ± 0.2 |
| UAGCAGCAAUAUUACGUACG | -1.2 ± 0.072 | -0.47 ± 0.1 |
| CUUUAGCAAUAUUACGCGUG | -1.89 ± 0.14 | -1.12 ± 0.17 |
